# Measured values as given in patent US20040063188A1.
# Target: recombinant HPV-16 L1 VLPs (baculovirus-derived, from Sf-9S insect cells) (human papillomavirus type 16) (UniProt P03101)
# Experiment: ELISA; 1000 ng VLPs mixed with infected-cell supernatants; reference is the same pair with VLPs in buffer or in sucrose (FIG. 11)
# UniProt P03101, sequence (P03101 whole entry): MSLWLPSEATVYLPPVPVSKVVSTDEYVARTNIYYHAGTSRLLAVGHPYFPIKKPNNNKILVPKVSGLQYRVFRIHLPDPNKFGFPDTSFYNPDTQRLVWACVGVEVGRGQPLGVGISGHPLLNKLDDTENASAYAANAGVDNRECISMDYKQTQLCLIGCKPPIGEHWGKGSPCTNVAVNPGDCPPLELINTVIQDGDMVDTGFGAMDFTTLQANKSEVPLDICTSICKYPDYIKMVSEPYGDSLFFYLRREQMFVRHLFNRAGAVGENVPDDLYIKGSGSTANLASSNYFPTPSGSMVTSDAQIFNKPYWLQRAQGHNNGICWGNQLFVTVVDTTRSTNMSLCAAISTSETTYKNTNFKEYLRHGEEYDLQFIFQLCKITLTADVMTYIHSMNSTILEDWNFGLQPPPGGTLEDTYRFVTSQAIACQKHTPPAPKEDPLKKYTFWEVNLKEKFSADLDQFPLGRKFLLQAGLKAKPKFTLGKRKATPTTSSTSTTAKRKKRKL
substance,measurement,value
H16.V5 murine monoclonal antibody,fold decrease in binding activity,5 fold
